The values below come from publication doi:10.1101/2022.05.27.493400.

Several values for one entry are separate records, joined by “and”; a condition that tells them apart may be missing. Identical values can stand only once.

This assay concerns the target SARS-CoV-2 spike protein, extraviral domain (aa 1-1213) (SARS-CoV-2) (UniProt P0DTC2). In words: SPR. A general note: SPR reads the build-up and loss of mass on a sensor chip optically.

In general, Kd refers to the constant that tells how readily two partners part at equilibrium. What is called koff is the first-order rate constant of dissociation. Low values mean slow dissociation, high ones fast dissociation. What is called kon is the second-order rate constant of association. Higher therefore signals faster complex formation. Turning to “pineapple-derived jacalin-related lectin AcmJRL (natural protein)”, the KD of a single replicate, from Langmuir isotherm is 7.9 µM and 11.5 µM and 14 µM; the KD of a single replicate, from rate constants was 3.1 µM and 4 µM and 2.7 µM; the Kd was 3.27 µM and 11.1 µM; the koff amounted to 0.00342 s⁻¹. Besides, the kon is 1060 M⁻¹ s⁻¹.
